The target in experiment [1] is RSV A + RSV B bivalent composition (RSV subtype A; RSV subtype B). The experiment in a line: AM14 Fab titration by SEC; High-Slow 2 cycle; 1 M 25°C (second value). For orientation: In gel filtration, larger molecules generally elute earlier.
Experiment [2] concerns the target T1, RSV F protein of subtype A comprising a polypeptide of SEQ ID NO: 1 and a polypeptide of SEQ ID NO: 2 (RSV subtype A, UniProt P11209 137-513; P03420 26-109).
T1 construct: Stabilized prefusion F trimer made of three F2-F1 heterodimers; Produced recombinantly in CHO cells; also called RSV A; RSVA
T1 chain 1: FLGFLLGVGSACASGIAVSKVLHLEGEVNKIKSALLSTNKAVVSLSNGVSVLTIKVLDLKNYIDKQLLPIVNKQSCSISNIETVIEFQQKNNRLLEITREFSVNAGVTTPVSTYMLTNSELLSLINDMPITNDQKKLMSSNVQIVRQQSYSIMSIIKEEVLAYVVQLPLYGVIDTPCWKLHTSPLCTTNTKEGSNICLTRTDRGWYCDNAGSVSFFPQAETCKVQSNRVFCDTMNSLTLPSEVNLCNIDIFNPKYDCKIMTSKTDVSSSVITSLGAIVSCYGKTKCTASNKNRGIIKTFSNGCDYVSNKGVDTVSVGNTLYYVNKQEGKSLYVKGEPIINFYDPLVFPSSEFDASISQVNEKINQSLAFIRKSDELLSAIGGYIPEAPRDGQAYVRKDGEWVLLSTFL
T1 chain 2: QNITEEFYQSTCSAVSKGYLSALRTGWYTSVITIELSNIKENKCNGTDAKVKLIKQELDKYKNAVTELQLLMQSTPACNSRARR
The experiment in a line: AM14 ELISA; F1 (pH 8, 100 mM NaCl, 0% sucrose); 2 wk 5°C. For orientation: An ELISA detects its analyte on a solid surface through an enzyme-linked reagent.

As to AM14 Fab, the Prefusion Content (%) in experiment [1] is 59%.

B1: AM14 (trimeric prefusion specific antibody of the AM14 ELISA) (antibody, V domains shown)
VH: EVQLVESGGGVVQPGRSLRLSCAASGFSFSHYAMHWVRQAPGKGLEWVAVISYDGENTYYADSVKGRFSISRDNSKNTVSLQMNSLRPEDTALYYCARDRIVDDYYYYGMDVWGQGATVTVSS
VL: DIQMTQSPSSLSASVGDRVTITCQASQDIKKYLNWYHQKPGKVPELLMHDASNLETGVPSRFSGRGSGTDFTLTISSLQPEDIGTYYCQQYDNLPPLTFGGGTKVEIKR
notes: Antibody as used in the AM14 ELISA, detected with an HRP-labeled secondary antibody
As for B1, in experiment [2], the “AM14 prefusion content (%), relative to standard” value stood at 100%.

The values above are taken from US20260097113A1 (Pfizer, published 2026).
